B1: Calcium-binding protein 39 (Homo sapiens), Q9Y376 (parent)
chain: MPFPFGKSHKSPADIVKNLKESMAVLEKQDISDKKAEKATEEVSKNLVAMKEILYGTNEKEPQTEAVAQLAQELYNSGLLSTLVADLQLIDFEGKKDVAQIFNNILRRQIGTRTPTVEYICTQQNILFMLLKGYESPEIALNCGIMLRECIRHEPLAKIILWSEQFYDFFRYVEMSTFDIASDAFATFKDLLTRHKLLSAEFLEQHYDRFFSEYEKLLHSENYVTKRQSLKLLGELLLDRHNFTIMTKYISKPENLKLMMNLLRDKSRNIQFEAFHVFKVFVANPNKTQPILDILLKNQAKLIEFLSKFQNDRTEDEQFNDEKTYLVKQIRDLKRPAQQEA

Variants of: B1
Conditions: with STK26, Q9P289-1
STK26, Q9P289-1, sequence (Q9P289 whole entry, looked up): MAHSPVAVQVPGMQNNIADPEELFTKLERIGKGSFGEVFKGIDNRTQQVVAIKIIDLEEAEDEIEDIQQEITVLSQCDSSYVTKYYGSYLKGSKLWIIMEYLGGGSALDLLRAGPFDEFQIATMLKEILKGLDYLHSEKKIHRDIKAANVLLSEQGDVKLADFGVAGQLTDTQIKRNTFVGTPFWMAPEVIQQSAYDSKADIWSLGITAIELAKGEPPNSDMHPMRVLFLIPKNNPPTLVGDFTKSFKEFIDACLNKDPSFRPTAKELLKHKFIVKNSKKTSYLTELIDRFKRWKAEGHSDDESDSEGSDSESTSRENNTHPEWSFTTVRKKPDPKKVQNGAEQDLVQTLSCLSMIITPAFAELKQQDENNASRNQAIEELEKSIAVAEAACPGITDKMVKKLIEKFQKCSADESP

Question: With F178E as the variant, how does the “effect of a mutation on the interaction” value read?
Answer: decreasing interaction strength

Question: Which “effect of a mutation on the interaction” value does the source give for F178E;V224E here?
Answer: decreasing interaction strength

Question: With Y223A as the variant, how does the “effect of a mutation on the interaction” value read?
Answer: decreasing interaction strength

Question: For R227A, which “effect of a mutation on the interaction” value is on record?
Answer: decreasing interaction strength

Question: Which “effect of a mutation on the interaction” value does the source give for M260E here?
Answer: decreasing interaction strength

Variants of: B1
Conditions: with STK26, Q9P289-1
Remark: another data set of the same source

Question: With F178E;V224E as the variant, how does the “effect of a mutation on the interaction” value read?
Answer: disrupting interaction strength

Question: M260E was tested. Which “effect of a mutation on the interaction” value did it give?
Answer: disrupting interaction strength

From IntAct's records for PubMed 23434407
